According to PMC2831308:

Tested on: carboxyltransferase (CT) alpha2beta2, wild-type (Escherichia coli)
Assay: EMSA

CT alpha transcript, 213 nt upstream of AUG to gene end
Kd: 145 nM
